# Reference: IntAct's records for PubMed 10749989
# B1: Twist-related protein 1 (Homo sapiens), Q15672 (parent)
# chain: MMQDVSSSPVSPADDSLSNSEEEPDRQQPPSGKRGGRKRRSSRRSAGGGAGPGGAAGGGVGGGDEPGSPAQGKRGKKSAGCGGGGGAGGGGGSSSGGGSPQSYEELQTQRVMANVRERQRTQSLNEAFAALRKIIPTLPSDKLSKIQTLKLAARYIDFLYQVLQSDELDSKMASCSYVAHERLSYAFSVWRMEGAWSMSASH
# Key:
# [1] = variants of: B1; conditions: with TCF3, P15923-1
# [2] = variants of: B1; conditions: with TCF3, P15923-1; remark: listed apart in the source
# TCF3, P15923-1, sequence (P15923 whole entry): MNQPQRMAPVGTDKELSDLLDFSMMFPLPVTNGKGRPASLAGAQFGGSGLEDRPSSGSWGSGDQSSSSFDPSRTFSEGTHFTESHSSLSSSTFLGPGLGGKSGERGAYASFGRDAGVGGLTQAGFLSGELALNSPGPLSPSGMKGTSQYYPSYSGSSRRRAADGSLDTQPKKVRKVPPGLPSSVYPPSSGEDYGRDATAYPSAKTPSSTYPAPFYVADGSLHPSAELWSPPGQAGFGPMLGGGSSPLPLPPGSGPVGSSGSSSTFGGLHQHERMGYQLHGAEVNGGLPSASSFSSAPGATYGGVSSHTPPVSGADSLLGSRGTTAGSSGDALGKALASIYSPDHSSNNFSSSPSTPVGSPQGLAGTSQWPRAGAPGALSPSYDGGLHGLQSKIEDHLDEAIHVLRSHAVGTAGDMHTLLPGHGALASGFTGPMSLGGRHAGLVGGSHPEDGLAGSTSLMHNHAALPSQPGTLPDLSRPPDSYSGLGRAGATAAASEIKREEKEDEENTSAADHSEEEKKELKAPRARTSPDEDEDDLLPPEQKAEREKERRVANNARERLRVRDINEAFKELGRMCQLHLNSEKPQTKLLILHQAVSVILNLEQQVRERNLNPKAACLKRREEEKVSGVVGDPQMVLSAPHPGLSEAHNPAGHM
Variant,effect of a mutation on the interaction [1],effect of a mutation on the interaction [2]
MMQDVSSSPVSPADDSLSNSEEEPDRQQPPSGKRGGRKRRSSRRSAGGGAGPGGAAGGGVGGGDEPGSPAQGKRGKKSAGCGGGGGAGGGGGSSSGGGSPQSYEELQTQRVMANVRERQRTQSLNEAFAALRKIIPTLPSDKLSEIQTLKLAARYIDFLYQVLQSDELDSKMASCSYVAHERLSYAFSVWRMEGAWSMSASH [K145E],decreasing interaction strength,with no effect
MMQDVSSSPVSPADDSLSNSEEEPDRQQPPSGKRGGRKRRSSRRSAGGGAGPGGAAGGGVGGGDEPGSPAQGKRGKKSAGCGGGGGAGGGGGSSSGGGSPQSYEELQTQRVMANVRERQRTQSLNEAFPALRKIIPTLPSDKLSKIQTLKLAARYIDFLYQVLQSDELDSKMASCSYVAHERLSYAFSVWRMEGAWSMSASH [A129P],disrupting interaction strength,decreasing interaction strength
MMQDVSSSPVSPADDSLSNSEEEPDRQQPPSGKRGGRKRRSSRRSAGGGAGPGGAAGGGVGGGDEPGSPAQGKRGKKSAGCGGGGGAGGGGGSSSGGGSPQSYEELQTQRVMANVRERQRTQSLNEAFAALRKIIPTLPSDKLSKIQTLKLAARYIDFFYQVLQSDELDSKMASCSYVAHERLSYAFSVWRMEGAWSMSASH [L159F],disrupting interaction strength,decreasing interaction strength
